Among the data in PMC5391026 are stoichiometry N values, retold here.

By stoichiometry N is commonly meant the number of molecules, sites or subunits per partner or assembly.

Experiment [1] deals with HvPho1ΔL78 (HvPho1 lacking the L78 insertion) (barley (Hordeum vulgare)). Put plainly: SEC; single recombinant proteins on HiLoad Superdex S-200 26/60, 25 mM HEPES pH 7.5, 50 mM NaCl; apparent molecular weight by column calibration; peak fractions also analysed by DLS at 25°C.
In experiment [2] the target is recombinant barley plastidic starch phosphorylase (HvPho1) (barley (Hordeum vulgare)). Put plainly: cross-linking; recombinant HvPho1 (1 mg/ml) in 20 mM HEPES pH 7.5 treated with glutaraldehyde (0.15% v/v) for 0.5 to 30 min at 37°C; SDS-PAGE.
For experiment [3] the target is unchanged. As to the kind of experiment: SEC; single recombinant proteins on HiLoad Superdex S-200 26/60, 25 mM HEPES pH 7.5, 50 mM NaCl; apparent molecular weight by column calibration; peak fractions also analysed by DLS at 25°C. A general note: Size exclusion chromatography separates by hydrodynamic size, large species first.
Experiment [4] has as its target branching enzyme IIb (HvBeIIb) of barley endosperm extract (barley (endogenous in Hordeum vulgare 'QUENCH' endosperm)). As to the kind of experiment: SEC; total barley endosperm soluble protein on a 26/60 Superdex S-200 column; fractions analysed by immunoblot (anti-HvPho1, anti-HvBeIIb polyclonal antibodies) and native activity gels; extract with or without 1 mM ATP and 2.5 mM protein phosphatase inhibitor cocktail before SEC.

“HvPho1ΔL78 (HvPho1 lacking the L78 insertion) (enzyme)”: in experiment [1], the stoichiometry N came out at 2.
As to “recombinant barley plastidic starch phosphorylase (HvPho1) (enzyme)”, the stoichiometry N in experiment [2] and in experiment [3] was 2 each time.
In experiment [4], “branching enzyme IIb (HvBeIIb) of barley endosperm extract” had a stoichiometry N of 2.
